Data: PMC3139429

Columns and labels:
[1] = target: MA (unmyristoylated matrix) (HIV-1, UniProt P12493 2-132); assay: fluorescence anisotropy
[2] = target: MyrMA (myristoylated matrix) (HIV-1, UniProt P12493 2-132); assay: fluorescence anisotropy

In the case of GGACAGGAAUUAAUAGUAGCUGUCC (structured_RNA) [FITC-Sel25], the Kd [1] is reported as 1030 ± 80 nM and the Kd [2] is reported as 813 ± 74 nM.
